The values below come from the supplement of paper PMC9170038.

The test system of this data set is MS2 coat protein. In words: apparent KD of MS2 coat protein; designed switch direction (-1 OFF switch, 1 ON switch): -1; higher = weaker reporter binding. Put shortly:
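RNA switches sharing common flanks were transcribed by stalled E. coli RNA polymerase on Illumina chips. A doubling series of SNAP-549-labelled MS2 coat protein, from 0.7 or 1.5 nM to 3 µM, was applied in Tris-HCl pH 7.5 buffer with KCl, MgCl2, BSA, DTT, tRNA and Tween-20. Each step lasted 0.8–1.5 h at the bottom of the series and 10–20 min at the top. Normalised cluster fluorescence was curve-fitted, giving apparent KD as the per-design median over clusters.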

[1] abbreviates: Eterna round: R95, input ligand: FMN 200 uM.
Where [2] appears, read: Eterna round: R95, input ligand: microRNA oligo, concentration not stated.
Setting [3] is: Eterna round: R95, input ligand: none.
Where [4] appears, read: input ligand: microRNA oligo, concentration not stated.

As to “GUUUCGAGACGGAGAUCCGACAUGAGGAUCACCCAUGUCUCACAAGCUUUUUGCUCGUCUUAUACUCCUCUGUUCUC [Elimod 48 - Jieux - Sensor, turn-off variant 1] (Eterna round: R97, puzzle: Sensor, turn-off variant 1)”, the “apparent KD of MS2 coat protein” value runs as follows: (input ligand: FMN 200 uM) 15.6 nM; (input ligand: none) 17.7 nM.
Turning to “GUUUGCGCAGGAUAUACAUGAGGAUCACCCAUGUGAGAGAAAGAAGUGAGGAAGAAAAGUAGAAGGGCGUGACG [Mat - Exclusion 3 - Mod of Salish D72] (puzzle: Exclusion 3)”, the “apparent KD of MS2 coat protein” value reads like this: under setting [1], 301 nM; under setting [2], 58.4 nM; under setting [3], 39 nM.
The like results for “UAAAAGUCAGGAUAUGCGAGAGAUUGAAGUAUGGAAAGGUAGCAGAAGGGACAUGAGGAUCACCCAUGUGAGGA [JR_Exclu4_Sub095] (puzzle: Exclusion 4)” were, in that order, 51.1 nM, 31.7 nM and 29.5 nM.
Regarding “UAAAAGUGAGGAUAUCCAAUAUAUGACAUGAGGAUCACCCAUGUUUCCACUCGUACCUCCGGAGAAGGCACAAAAU [Ex5 #60] (Eterna round: R97, puzzle: Exclusion 5)”, the “apparent KD of MS2 coat protein” value (input ligand: FMN 200 uM) amounted to 25.2 nM and the “apparent KD of MS2 coat protein” value (input ligand: none) came to 28.6 nM.
As to “UAAAAUAAACAUGAGGAUCACCCAUGUGAAUGGACUCCUCGGGAGGAUAUUCUGCUUAAAGGUCAGGAGAAGGCCCAUUGCAAU [Isinza] (Eterna round: R96, puzzle: Exclusion NG 3)”, the “apparent KD of MS2 coat protein” value reads like this: (input ligand: FMN 200 uM) 545 nM; under setting [4], 242 nM; (input ligand: none) 197 nM.
Turning to “UAAAGUAUAUAGGAUAUCUAGCUGGAAACAGCUAGAGAAGGAUGUACAUGAGGAUCACCCAUGUAGAUCUCAAA [Ex6/15-A2] (Eterna round: R97, puzzle: Exclusion 6)”, the “apparent KD of MS2 coat protein” value reads like this: (input ligand: FMN 200 uM) 19 nM; (input ligand: none) 16.2 nM.
Turning to “UAAAUGUGAGGAUAUUCGAUUUACUCGGAGACGAGUAGAUCGGAGAAGGCACAUGAGGAUCACCCAUGUUCCUU [Mat - Exclusion 4 - JL Mod - D10] (Eterna round: R97, puzzle: Exclusion 4)”, the “apparent KD of MS2 coat protein” value (input ligand: FMN 200 uM) stood at 234 nM and the “apparent KD of MS2 coat protein” value (input ligand: none) was 23.2 nM.
The like results for “UAACAAGCUUUAAGAUCCUACAUGAGGAUCACCCAUGUGCUCGUCUUAUAACGUACUGUGACGAAAGUCACGGUACG [JL TOV1 3.17] (Eterna round: R97, puzzle: Sensor, turn-off variant 1)” were, in that order, 206 nM and 160 nM.
With “UAACUGCUCGUCUUGUUAAACAUGAGGAUCACCCAUGUCAGCCUGUAAGGGUACGGUAGAUAGGCCCGAUUGCAUGA [Eternabot (L1) Solution 11] (Eterna round: R97, puzzle: Sensor, turn-off variant 1)”, the “apparent KD of MS2 coat protein” value was 26.9 nM (input ligand: FMN 200 uM) and 31.2 nM (input ligand: none).
As to “UAAGUUUACCGAGGAUAUGGUCAAUAAUUAUGACCAGAAGGCGGACUCAACAUGAGGAUCACCCAUGUAUAAAGGGUAAUUGGU [JR_ExcNG1_Sub047] (Eterna round: R96, puzzle: Exclusion NG 1)”, the “apparent KD of MS2 coat protein” value is, setting by setting: (input ligand: FMN 200 uM) 154 nM; under setting [4], 110 nM; (input ligand: none) 90.8 nM.
For “UAAUAAAGUGUGAGGAUAUGCUGGUCGAUAGAUCAGCAGAAGGCACAUGAGGAUCACCCAUGUAAUAUAUAAAU [Mat - Exclusion 4 - JL Mod - D58] (puzzle: Brourd's mod of Exclusion 4)”, the “apparent KD of MS2 coat protein” value reads like this: under setting [1], 258 nM; under setting [2], 40.9 nM; under setting [3], 45 nM.
The like results for “UAAUACUCAGGAUAUAUGAUGUGAAACAUGAGGAUCACCCAUGUAAUAUUAUGGAUGUAAAUAGAAGGGAGAUUAU [Mat - Exclusion 5 - JL mod - D20] (puzzle: Exclusion 5)” were, in that order, 53.3 nM, 55.4 nM and 63 nM.
As for “UAAUAGUAUGUUAGGAUAUGCUGGUCGAAAGAUCAGCAGAAGGAACAUGAGGAUCACCCAUGUAGACUAUUUUA [Mod of JL 20 - Jieux - Brourd's mod of Exclusion 4] (Eterna round: R97, puzzle: Brourd's mod of Exclusion 4)”, the “apparent KD of MS2 coat protein” value stood at 31.6 nM (input ligand: FMN 200 uM) and 17.8 nM (input ligand: none).
In the case of “UAAUGCAAGUAAAGAUCUUACAUGAGGAUCACCCAUGUGCUCGUCUUAUAAAGUACUAUCACGAAAGUGAUAGUACA [Mat - Sensor v3 - turn-off var 1 - Eli Mod - D89] (puzzle: Sensor v3, turn-off variant 1)”, the “apparent KD of MS2 coat protein” value reads like this: under setting [1], 18.2 nM; under setting [2], 119 nM; under setting [3], 18 nM.
In the case of “UAAUGUAUAUAGGAUAUCUAGCUGGAAACAGCUAGAGAAGGAUGUACAUGAGGAUCACCCAUGUAAAUCGUGAA [Ex6/13-B1] (Eterna round: R97, puzzle: Exclusion 6)”, the “apparent KD of MS2 coat protein” value worked out at 60.4 nM (input ligand: FMN 200 uM) and 24.9 nM (input ligand: none).
In the case of “UACAAGCUUUUAAGAUCCCACAUGAGGAUCACCCAUGUGCUCGUCUUAUAACGUACUGUGACGAAAGUCACGGUACG [JL TOV1 3.24] (Eterna round: R97, puzzle: Sensor, turn-off variant 1)”, the “apparent KD of MS2 coat protein” value by setting is: (input ligand: FMN 200 uM) 15.8 nM; (input ligand: none) 24.3 nM.
In the case of “UACACCACAUGAGGAUCAAACAUGAGGAUCACCCAUGUAUAGCAAGCUUUUUGCUCGUCUUAUAAAUAUGUGGUGUA [Electric Eye 6 - Jieux - Sensor, turn-off variant 1] (Eterna round: R97, puzzle: Sensor, turn-off variant 1)”, the “apparent KD of MS2 coat protein” value turned out to be 14.9 nM (input ligand: FMN 200 uM) and 14.9 nM (input ligand: none).
Consider “UACACCGCAUGAGGAUCAAACAUGAGGAUCACCCAUGUAUAGCAAGCUUUUUGCUCGUCUUAUAAAUAUGUGGUGUA [Electric Eye 8 - Jieux - Sensor, turn-off variant 1] (Eterna round: R97, puzzle: Sensor, turn-off variant 1)”, for which the “apparent KD of MS2 coat protein” value (input ligand: FMN 200 uM) came to 16.6 nM and the “apparent KD of MS2 coat protein” value (input ligand: none) worked out at 15.5 nM.
On to “UACACUCAGCAGGAUAUGCAACAAAAUUAAAACGCAGAAGGGUUGACAUGAGGAUCACCCAUGUAACUCAUGCA [EX6 A.1] (Eterna round: R97, puzzle: Exclusion 6)”, for which the “apparent KD of MS2 coat protein” value was found to be 14.2 nM (input ligand: FMN 200 uM) and 15.7 nM (input ligand: none).
Regarding “UACACUGCAUGAGGAUCAAACAUGAGGAUCACCCAUGUAUAGCAGGCUUUUUGUCCGUCUUAUAAUUAUGUAGUGUA [Electric Eye 17 - Jieux - Sensor, turn-off variant 1] (Eterna round: R97, puzzle: Sensor, turn-off variant 1)”, the “apparent KD of MS2 coat protein” value was 17.3 nM (input ligand: FMN 200 uM) and 15 nM (input ligand: none).
In the case of “UACAUGAGGAUCACCCAUGUACCUUAUGUAAGAGUGGGAAGUAAGGAUAUAUAUGAAGGAAUGAAAUAGAAGGUGCAUAGAGAG [Default title] (Eterna round: R96, puzzle: Exclusion NG 3)”, the “apparent KD of MS2 coat protein” value is, setting by setting: (input ligand: FMN 200 uM) 121 nM; under setting [4], 97.4 nM; (input ligand: none) 93.3 nM.
Regarding “UACAUGAGGAUCACCCAUGUUUUGUCGUGUAUGGUAUUUAUCUAGGAUAUCAAGUUAUGUAUUUAUGAGAAGGAGAAUAUUAAU [JMF's solution 31] (Eterna round: R96, puzzle: Exclusion NG 3)”, the “apparent KD of MS2 coat protein” value is, setting by setting: (input ligand: FMN 200 uM) 40.4 nM; under setting [4], 35.3 nM; (input ligand: none) 43.2 nM.
For “UACAUGAGGAUCACCCAUGUUUUGUCGUGUAUGGUAUUUAUCUAGGAUAUCAAGUUAUUUAUGUAUGAGAAGGAGAAUAUUAAU [JMF's solution 36] (Eterna round: R96, puzzle: Exclusion NG 3)”, in that order: 42.5 nM, 26.4 nM and 35.2 nM.
As for “UACAUGAGGAUCACCCAUGUUUUGUCGUGUAUGGUAUUUAUCUAGGAUAUCAAGUUAUUUGUUUAUGAGAAGGAGAAUAUUAAU [JMF's solution 33] (Eterna round: R96, puzzle: Exclusion NG 3)”, the “apparent KD of MS2 coat protein” value (input ligand: FMN 200 uM) worked out at 37.1 nM, the “apparent KD of MS2 coat protein” value under setting [4] amounted to 26.1 nM and the “apparent KD of MS2 coat protein” value (input ligand: none) was determined as 37.1 nM.
For the sequence “UACAUGAGGAUCACCCAUGUUUUGUCGUGUAUGGUAUUUAUCUAGGAUAUCAAUGUAUUUAUUCAUGAGAAGGAGAAUAUUAAU [JMF's solution 48] (Eterna round: R96, puzzle: Exclusion NG 3)”, the “apparent KD of MS2 coat protein” value runs as follows: (input ligand: FMN 200 uM) 32.4 nM; under setting [4], 28.3 nM; (input ligand: none) 33.7 nM.
Regarding “UACAUGAGGAUCACCCAUGUUUUGUCGUGUAUGGUAUUUAUCUAGGAUAUCAAUUGAAUUAUUUAUGAGAAGGAGAAUAUUAAU [JMF's solution 58] (Eterna round: R96, puzzle: Exclusion NG 3)”, the “apparent KD of MS2 coat protein” value by setting is: (input ligand: FMN 200 uM) 42 nM; under setting [4], 36.4 nM; (input ligand: none) 49 nM.
Turning to “UACAUGAGGAUCACCCAUGUUUUGUCGUGUAUGGUAUUUAUCUAGGAUAUCAAUUUACUUAUUUAUGAGAAGGAGAAUAUUAAU [JMF's solution 19] (Eterna round: R96, puzzle: Exclusion NG 3)”, the “apparent KD of MS2 coat protein” value under setting [4] turned out to be 26.8 nM.
Consider “UACAUGAGGAUCACCCAUGUUUUGUCGUGUAUGGUAUUUAUCUAGGAUAUCAAUUUAGUUAAUUAUGAGAAGGAGAAUAUUAAU [JMF's solution 75] (Eterna round: R96, puzzle: Exclusion NG 3)”, for which the “apparent KD of MS2 coat protein” value under setting [4] was found to be 28.9 nM.
